Patent US20220088195A1, “Prevention or mitigation of T-cell bispecific antibody-related adverse effects” (Hoffmann-La Roche Inc., priority 2020, published 2022)

Tested on: MKN45 NLR target cells
Experiment: Reversibility killing assay with two and three stimulations (OFF/ON, ON/OFF/ON), MKN45 NLR + CEA-TCB, Incucyte
Type: cell-based, human
Settings: 1 nM CEA-TCB, no dasatinib
Experimental: FIG. 16. In vitro killing assay set-up and timelines. PBMCs were stimulated on MKN45 NLR (E:T=10:1) target cells with 1 nM CEA-TCB for 96 hours. Activated PBMCs were washed and restimulated on new MKN45 NLR target cells (E:T=10:1) with 1 nM CEA-TCB in the presence of 25 nM dasatinib for 72 hours. Activated PBMCs were washed to remove dasatinib and restimulated on new MKN45 NLR target cells (E:T=10:1) with 1 nM CEA-TCB (“ON/OFF/ON”, see upper row of table), or vice versa (“OFF/ON/OFF”, see lower row of table). Killing was followed by Incucyte®.
FIG. 17. Real time killing of MKN45 NLR target cells by CEA-TCB in the presence of 25 nM dasatinib (0-72 h) upon first stimulation and in the absence of 25 nM dasatinib (96-170 h) upon restimulation, in the assay of FIG. 16 (“OFF/ON”).
FIG. 19. Real time killing of MKN45 NLR target cells by CEA-TCB in the assay of FIG. 16 (“ON/OFF/ON”).
FIG. 21. CEA-TCB mediated target cell killing. (A) PBMCs were stimulated on MKN45 NLR (E:T=10:1) target cells with 1 nM CEA-TCB for 96 hours in the presence and absence of dasatinib. (B) Activated PBMCs were washed to remove dasatinib and restimulated on new MKN45 NLR target cells (E:T=10:1) with 1 nM CEA-TCB. Killing was followed by Incucyte®.
We then verified if dasatinib's effect is reversible upon its removal. Therefore we set-up a killing assay with two and three stimulations in the presence and absence of dasatinib and followed the killing kinetics using an Incucyte® system (FIG. 16). After each stimulation, effector cells were washed and re-stimulated on fresh MKN45 NLR target cells with 1 nM CEA TCB in the presence and absence of dasatinib allowing to mimic OFF/ON switch and ON/OFF/ON switch.
Lastly, we evaluated if the effect of dasatinib was reversible on activated T cells. Consequently, we supplemented the media with 25 nM dasatinib upon the second stimulation with 1 nM CEA-TCB to prevent killing from activated T cells and then removed the dasatinib upon third stimulation with 1 nM CEA-TCB to verify if killing would be restored. […] We concluded that the effect of dasatinib in the prevention of T cell activation and cytotoxicity is reversible.
For T-cell engaging antibodies, cytokine release peaks are higher upon the first treatment than after subsequent treatments. We were curious to see if low doses of dasatinib could prevent cytokine release while minimally affecting TCB-efficacy upon first stimulation. In killing assays as described in FIG. 16, the cytokine levels upon first treatment with 1 nM CEA-TCB in the presence of 6.25 nM and 12.5 nM dasatinib and upon second treatment with 1 nM CEA-TCB in the absence of dasatinib were measured in the supernatants. […] Its removal upon second stimulation may also balance the cytokine release and restore TCB-induced cytotoxicity due to the reversibility properties of dasatinib.

B1: CEA-TCB: T cell bispecific antibody binding CEA and CD3 (SEQ ID NOs 28-47) (antibody, chains of the INN, looked up, V domains shown)
VH: QVQLVQSGAEVKKPGASVKVSCKASGYTFTEFGMNWVRQAPGQGLEWMGWINTKTGEATYVEEFKGRVTFTTDTSTSTAYMELRSLRSDDTAVYYCARWDFAYYVEAMDYWGQGTTVTVSS
VL: DIQMTQSPSSLSASVGDRVTITCKASAAVGTYVAWYQQKPGKAPKLLIYSASYRKRGVPSRFSGSGSGTDFTLTISSLQPEDFATYYCHQYYTYPLFTFGQGTKLEIK
VH2: B1 VH
VL2: QAVVTQEPSLTVSPGGTVTLTCGSSTGAVTTSNYANWVQEKPGQAFRGLIGGTNKRAPGTPARFSGSLLGGKAALTLSGAQPEDEAEYYCALWYSNLWVFGGGTKLTVL
- killing of MKN45 cells after first stimulation: triggered the killing
